Experimental data reported in IntAct's records for PubMed 11438675.

B1: Nibrin (Homo sapiens), O60934 (parent)
chain: MWKLLPAAGPAGGEPYRLLTGVEYVVGRKNCAILIENDQSISRNHAVLTANFSVTNLSQTDEIPVLTLKDNSKYGTFVNEEKMQNGFSRTLKSGDGITFGVFGSKFRIEYEPLVACSSCLDVSGKTALNQAILQLGGFTVNNWTEECTHLVMVSVKVTIKTICALICGRPIVKPEYFTEFLKAVESKKQPPQIESFYPPLDEPSIGSKNVDLSGRQERKQIFKGKTFIFLNAKQHKKLSSAVVFGGGEARLITEENEEEHNFFLAPGTCVVDTGITNSQTLIPDCQKKWIQSIMDMLQRQGLRPIPEAEIGLAVIFMTTKNYCDPQGHPSTGLKTTTPGPSLSQGVSVDEKLMPSAPVNTTTYVADTESEQADTWDLSERPKEIKVSKMEQKFRMLSQDAPTVKESCKTSSNNNSMVSNTLAKMRIPNYQLSPTKLPSINKSKDRASQQQQTNSIRNYFQPSTKKRERDEENQEMSSCKSARIETSCSLLEQTQPATPSLWKNKEQHLSENEPVDTNSDNNLFTDTDLKSIVKNSASKSHAAEKLRSNKKREMDDVAIEDEVLEQLFKDTKPELEIDVKVQKQEEDVNVRKRPRMDIETNDTFSDEAVPESSKISQENEIGKKRELKEDSLWSAKEISNNDKLQDDSEMLPKKLLLTEFRSLVIKNSTSRNPSGINDDYGQLKNFKKFKKVTYPGAGKLPHIIGGSDLIAHHARKNTELEEWLRQEMEVQNQHAKEESLADDLFRYNPYLKRRR

Variants of: B1
Settings: with chk2_human CHEK2, O96017
Sequence of chk2_human CHEK2, O96017 (O96017 whole entry): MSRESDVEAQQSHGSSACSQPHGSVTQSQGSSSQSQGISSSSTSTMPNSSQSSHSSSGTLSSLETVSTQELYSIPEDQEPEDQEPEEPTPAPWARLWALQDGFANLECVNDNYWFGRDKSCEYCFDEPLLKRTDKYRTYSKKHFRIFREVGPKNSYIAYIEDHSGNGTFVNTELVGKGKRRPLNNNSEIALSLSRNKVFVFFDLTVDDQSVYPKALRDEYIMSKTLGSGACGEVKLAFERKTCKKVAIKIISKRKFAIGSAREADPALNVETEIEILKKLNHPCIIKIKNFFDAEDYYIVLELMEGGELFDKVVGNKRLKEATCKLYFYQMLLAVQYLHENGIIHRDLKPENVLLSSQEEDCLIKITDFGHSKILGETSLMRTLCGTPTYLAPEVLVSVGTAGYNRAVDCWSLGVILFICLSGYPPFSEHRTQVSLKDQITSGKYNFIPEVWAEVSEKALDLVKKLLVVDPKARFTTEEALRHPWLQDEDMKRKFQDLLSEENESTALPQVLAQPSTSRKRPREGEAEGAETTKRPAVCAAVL

Variant	effect of a mutation on the interaction
S343A	decreasing interaction
